One series can be described thus: Serum stability assay. To be noted: pH 7.6; human serum, 37 °C, LC/MS; read-out: serum stability τ1/2 (converted). The series is classed as in vitro ADME. On the procedure: Next, we tested the metabolic stability of the discovered thiopeptides. The compounds were incubated in human serum at 37 °C in the presence of an internal control, and the amounts of the remaining analytes were quantified by LC/MS (Figures S27 and 28). […] At the other extreme, IR11 rapidly degraded in human serum with τ1/2 = 0.5 h. […]
Kinetic parameters and affinities of the […]
2.12. Thiopeptide metabolic stability experiments
The mixtures were stirred
well and transferred to a 37 °C thermostat. […]

Series [1] addresses T1, TLR10 (Homo sapiens, UniProt Q9BXR5).
T1 sequence (Q9BXR5 20-576): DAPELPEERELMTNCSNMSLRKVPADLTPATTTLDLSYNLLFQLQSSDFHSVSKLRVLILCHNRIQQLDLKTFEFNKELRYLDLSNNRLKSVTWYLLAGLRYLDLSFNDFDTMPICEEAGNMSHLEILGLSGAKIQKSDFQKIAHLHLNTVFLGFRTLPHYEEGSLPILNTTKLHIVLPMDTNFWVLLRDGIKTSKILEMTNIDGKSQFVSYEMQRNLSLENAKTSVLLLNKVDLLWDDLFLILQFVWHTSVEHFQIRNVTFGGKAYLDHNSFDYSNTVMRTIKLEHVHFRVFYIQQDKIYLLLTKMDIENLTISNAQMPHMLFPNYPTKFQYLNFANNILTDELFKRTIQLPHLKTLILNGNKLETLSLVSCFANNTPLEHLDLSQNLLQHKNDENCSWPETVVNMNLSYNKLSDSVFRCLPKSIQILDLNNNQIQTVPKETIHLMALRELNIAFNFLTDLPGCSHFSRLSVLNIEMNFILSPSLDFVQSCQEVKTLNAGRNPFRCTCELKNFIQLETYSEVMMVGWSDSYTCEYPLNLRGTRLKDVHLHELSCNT
In words: mRNA display affinity selection against TLR10, NGS abundance. The series is classed as binding. Also on record: Chimera protein (extracellular domain, amino acid 20-576;); Fc (chimera); purchased R&D system #6619-TR-050. The settings on record: TLR10 selection, NGS abundance rank; for rank in pulldown(+): –: not found in the final pulldown(+) libraries at the sequenced depth.

For series [2], the target named is T1, TLR10. In words: Single-round mRNA display binding assay (qPCR), TLR10. The settings on record: ratio of cDNA recoveries (qPCR), TLR10 pulldown over beads only, single-round selection.
The target of another series is T2, IRAK4 (Homo sapiens, UniProt Q9NWZ3).
T2 sequence (Q9NWZ3 1-460): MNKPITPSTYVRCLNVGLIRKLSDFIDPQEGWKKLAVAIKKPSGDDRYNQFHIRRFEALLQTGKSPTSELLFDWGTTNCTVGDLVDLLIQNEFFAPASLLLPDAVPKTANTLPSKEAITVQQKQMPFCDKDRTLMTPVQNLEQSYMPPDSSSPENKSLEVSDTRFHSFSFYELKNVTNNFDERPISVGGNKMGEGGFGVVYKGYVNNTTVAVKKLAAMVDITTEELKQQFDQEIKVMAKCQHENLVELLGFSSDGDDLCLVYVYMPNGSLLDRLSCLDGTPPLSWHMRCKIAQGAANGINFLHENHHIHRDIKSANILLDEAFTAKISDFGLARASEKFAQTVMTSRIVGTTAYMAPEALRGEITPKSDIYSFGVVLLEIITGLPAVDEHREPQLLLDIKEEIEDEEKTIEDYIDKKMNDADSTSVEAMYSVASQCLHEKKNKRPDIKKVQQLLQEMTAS
In words: mRNA display affinity selection against IRAK4, NGS abundance. The series is classed as binding. On the set-up: acids 1-460; NP_057207.2) was purchased from Carna Biosciences; purchased Carna Biosciences (Kobe, Japan). To be noted: Top100 selection hits, NGS.

*1 amine or outer side, *2 acyl side, *3 side chain or, on linkers, in order; H or OH if unused. Where a SMILES comes first, the peptide text is derived from it. Bridges are numbered along the chain shown (N, C = ends). [ ]: non-standard residue; d: D form. X2 = C=C(N[*:2])c1nc(-c2nc(-c3nc(C(=O)OC)cs3)ccc2C(=O)[*:1])cs1; Nle = CCCC[C@H](N)C(=O)O; Dha = C=C(N)C(=O)O

On to `C=C1NC(=O)[C@H](Cc2c[nH]c3ccccc23)NC(=O)CNC(=O)[C@H](C(C)C)NC(=O)[C@H](CC(N)=O)NC(=O)CNC(=O)CNC(=O)[C@H](Cc2ccc(O)cc2)NC(=O)[C@@H]2CCCN2C(=O)[C@H](CC(N)=O)NC(=O)[C@H]([C@@H](C)O)NC(=O)[C@H](Cc2c[nH]c3ccccc23)NC(=O)c2ccc(-c3nc(C(=O)OC)cs3)nc2-c2csc1n2` [TL1] (HELM PEPTIDE1{W.T.N.P.Y.G.G.N.V.G.W}|CHEM1{[C=C(N[*:2])c1nc(-c2nc(-c3nc(C(=O)OC)cs3)ccc2C(=O)[*:1])cs1]}$PEPTIDE1,CHEM1,1:R1-1:R1|PEPTIDE1,CHEM1,11:R2-1:R2$$$V2.0; bridges inferred), for which the half-life at 10 µM in “Serum stability assay” is 4.6 ± 0.3 h. On TLR10 [1], the “rank in pulldown(–)” value amounted to 1 and the “rank in pulldown(+)” value is listed as 3. In addition, on TLR10 [2], the “display P/N ratio” value amounted to 127.

As for `C=C1NC(=O)[C@H](Cc2ccc(O)cc2)NC(=O)[C@H](C)NC(=O)[C@H](C(C)C)NC(=O)[C@H](CCCCN)NC(=O)CNC(=O)[C@H](CC(C)C)NC(=O)[C@H](CCCNC(=N)N)NC(=O)[C@@H]2CCCN2C(=O)[C@H](Cc2ccccc2)NC(=O)[C@H](CCCC)NC(=O)[C@H](CCCC)NC(=O)[C@H]([C@@H](C)O)NC(=O)[C@H](Cc2c[nH]c3ccccc23)NC(=O)c2ccc(-c3nc(C(=O)OC)cs3)nc2-c2csc1n2` [TL9] (HELM PEPTIDE1{W.T.[Nle].[Nle].F.P.R.L.G.K.V.A.Y}|CHEM1{[C=C(N[*:2])c1nc(-c2nc(-c3nc(C(=O)OC)cs3)ccc2C(=O)[*:1])cs1]}$PEPTIDE1,CHEM1,1:R1-1:R1|PEPTIDE1,CHEM1,13:R2-1:R2$$$V2.0), the half-life at 10 µM in “Serum stability assay” is 1.7 ± 0.1 h. Also, on TLR10 [1], the “rank in pulldown(–)” value is given as 37 and the “rank in pulldown(+)” value turned out to be 22. The “display P/N ratio” value on TLR10 [2] came out at 235.

With `C=C1NC(=O)CNC(=O)[C@H]([C@@H](C)CC)NC(=O)[C@H]([C@@H](C)CC)NC(=O)CNC(=O)[C@H](CCC(N)=O)NC(=O)CNC(=O)[C@H](CCCC(N)=O)NC(=O)[C@H](Cc2c[nH]c3ccccc23)NC(=O)[C@H](C(C)C)NC(=O)[C@H]([C@@H](C)CC)NC(=O)[C@H](CC(N)=O)NC(=O)[C@H](CO)NC(=O)[C@H](Cc2c[nH]c3ccccc23)NC(=O)c2ccc(-c3nc(C(=O)OC)cs3)nc2-c2csc1n2` [TL10] (HELM PEPTIDE1{W.S.N.I.V.W.[O=C([C@H](CCCC(=O)[*:3])N[*:1])[*:2]].G.Q.G.I.I.G}|PEPTIDE2{[am]}|CHEM1{[C=C(N[*:2])c1nc(-c2nc(-c3nc(C(=O)OC)cs3)ccc2C(=O)[*:1])cs1]}$PEPTIDE1,PEPTIDE2,7:R3-1:R1|PEPTIDE1,CHEM1,1:R1-1:R1|PEPTIDE1,CHEM1,13:R2-1:R2$$$V2.0; bridges inferred), the half-life at 10 µM in “Serum stability assay” is 4.7 ± 0.3 h. Moreover, on TLR10 [1], the “rank in pulldown(–)” value was 4 and the “rank in pulldown(+)” value is 1. The “display P/N ratio” value on TLR10 [2] was 352.

Take `C=C1NC(=O)[C@H]([C@@H](C)CC)NC(=O)[C@H](CO)NC(=O)[C@H](CC(=O)O)NC(=O)[C@H](CCCNC(=N)N)NC(=O)[C@H](C)NC(=O)[C@H](CCCC)NC(=O)C(=C)NC(=O)CNC(=O)[C@@H]2CCCN2C(=O)[C@H](Cc2c[nH]c3ccccc23)NC(=O)c2ccc(-c3nc(C(=O)OC)cs3)nc2-c2csc(n2)C(=C)NC1=O` [TL18] (WPG[Dha][Nle]ARDSI[Dha]; linker N-C via X2): in “Serum stability assay”, the half-life at 10 µM was 2.5 ± 0.1 h. Besides, at TLR10 [1], the “rank in pulldown(–)” value is recorded as 10 and the “rank in pulldown(+)” value is given as 13. The “display P/N ratio” value at TLR10 [2] was 380.

In the series with IRAK4 (IRAK4 selection pulldown (+)), TLLWKRRNWA yielded a Library fraction of 0.0007 and a Raw reads of 76. In the series with IRAK4 (IRAK4 selection pulldown (-)), this molecule came in with a Library fraction of 0.00043 and a Raw reads of 57.

TMKRIVINWGWG: in the series with IRAK4 (IRAK4 selection pulldown (-)), the Library fraction turned out to be 0.0001 and the Raw reads came to 14.

In the series with IRAK4 (IRAK4 selection pulldown (+)), TMLWKRRIHA yielded a Library fraction of 0.003 and a Raw reads of 323. In the series with IRAK4 (IRAK4 selection pulldown (-)), this molecule gave a Library fraction of 0.00136 and a Raw reads of 181.

For TMLWKRRIYR, in the series with IRAK4 (IRAK4 selection pulldown (+)), the Library fraction came out at 0.044 and the Raw reads is 4661. In the series with IRAK4 (IRAK4 selection pulldown (-)), this molecule returned a Library fraction of 0.029 and a Raw reads of 3881.

On to TMLWKRRLFR, for which, in the series with IRAK4 (IRAK4 selection pulldown (+)), the Library fraction is on record as 0.0001 and the Raw reads came to 9.

In the series with IRAK4 (IRAK4 selection pulldown (-)), TMRWKRRNWA came in with a Library fraction of 0.00026 and a Raw reads of 35.

In the series with IRAK4 (IRAK4 selection pulldown (+)), TQFWKRRNYA yielded a Library fraction of 0.0002 and a Raw reads of 26. Also, in the series with IRAK4 (IRAK4 selection pulldown (-)), the Library fraction came out at 7e-5 and the Raw reads came out at 10.

TQRVRNRCYK: in the series with IRAK4 (IRAK4 selection pulldown (+)), the Library fraction is recorded as 0.013 and the Raw reads was found to be 1424. In the series with IRAK4 (IRAK4 selection pulldown (-)), this molecule came in with a Library fraction of 0.00437 and a Raw reads of 584.

On to TQRWKCRLYR, for which, in the series with IRAK4 (IRAK4 selection pulldown (+)), the Library fraction is recorded as 0.0001 and the Raw reads is 12.

On to TQRWKHRLYK, for which, in the series with IRAK4 (IRAK4 selection pulldown (+)), the Library fraction was found to be 0.0006 and the Raw reads came out at 68. In the series with IRAK4 (IRAK4 selection pulldown (-)), the Library fraction was 0.00032 and the Raw reads is 43.

In the series with IRAK4 (IRAK4 selection pulldown (+)), TQRWKQKNWS had a Library fraction of 0.0001 and a Raw reads of 9.

For TQRWKRRNYT, in the series with IRAK4 (IRAK4 selection pulldown (+)), the Library fraction is listed as 0.0013 and the Raw reads is 136. Moreover, in the series with IRAK4 (IRAK4 selection pulldown (-)), the Library fraction stood at 0.0006 and the Raw reads was found to be 80.

In the series with IRAK4 (IRAK4 selection pulldown (+)), TQRWNNRNWC showed a Library fraction of 0.0003 and a Raw reads of 29. In the series with IRAK4 (IRAK4 selection pulldown (-)), this molecule gave a Library fraction of 0.00014 and a Raw reads of 19.

With TQRWRARNYK, in the series with IRAK4 (IRAK4 selection pulldown (+)), the Library fraction was determined as 0.006 and the Raw reads stood at 624. In the series with IRAK4 (IRAK4 selection pulldown (-)), this molecule registered a Library fraction of 0.00431 and a Raw reads of 576.

In the series with IRAK4 (IRAK4 selection pulldown (+)), TQRYLSKNYK came in with a Library fraction of 0.0001 and a Raw reads of 12. In the series with IRAK4 (IRAK4 selection pulldown (-)), this molecule displayed a Library fraction of 0.00025 and a Raw reads of 33.

In the series with IRAK4 (IRAK4 selection pulldown (+)), TQRYRWRNYK displayed a Library fraction of 0.0001 and a Raw reads of 9.

In the series with IRAK4 (IRAK4 selection pulldown (+)), TQYWKRRIYN returned a Library fraction of 0.007 and a Raw reads of 748. In the series with IRAK4 (IRAK4 selection pulldown (-)), this molecule returned a Library fraction of 0.00241 and a Raw reads of 322.

The values above are taken from publication PMC10683472, “Deep Learning-Driven Library Design for the De Novo Discovery of Bioactive Thiopeptides” (ACS Central Science, 2023).
